Experimental findings from US20260263521A1, “ANTI-CD200R1 ANTIBODY AND USE THEREOF” (AIMED BIO INC., priority 2023, published 2026) are described below.

Assay [1] deals with T1, CD200R1 on Jurkat-CD200R1 cells (Homo sapiens, UniProt Q8TD46).
T1 construct: host or cells: Jurkat
T1 sequence (Q8TD46 25-348): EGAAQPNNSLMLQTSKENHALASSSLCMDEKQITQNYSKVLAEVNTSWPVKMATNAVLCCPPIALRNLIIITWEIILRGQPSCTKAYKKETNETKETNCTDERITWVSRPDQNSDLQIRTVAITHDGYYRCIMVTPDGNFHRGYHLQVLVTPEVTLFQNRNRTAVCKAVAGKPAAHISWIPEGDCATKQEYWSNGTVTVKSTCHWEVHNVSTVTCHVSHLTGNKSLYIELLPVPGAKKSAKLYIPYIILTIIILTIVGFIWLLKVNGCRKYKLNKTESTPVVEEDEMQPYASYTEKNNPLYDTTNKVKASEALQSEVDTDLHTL
Briefly: Cell binding assay (flow cytometry), Jurkat-CD200R1 cells. Format: cell-based. As for the experimental part:
The binding ability of the antibodies identified using unique multifaceted antibody discovery technology was identified in HH (CRL-2105) cells, which endogenously express CD200R1, and Jurkat-CD200R1 cells (Source: DiscoverX), which were generated by intranuclear injection of CD200R1 cDNA.
HH and Jurkat-CD200R1 cells were maintained in RPMI 1640 medium supplemented with 10% heat-inactivated FBS and 1% Penicillin/Streptomycin (P/S). The cells were washed by centrifugation at 130 g for 5 minutes. The cells were seeded onto 96-well round-bottom plates (SPL, #34296) at a density of 1×10^5 cells/well in Flow cytometry staining buffer (Invitrogen, #00-4222-26) or FACS buffer. The cells were treated with all 16 substances and the positive control LY3454738 (US 2020/0087395, I-4P, at Eli Lilly) a concentration of 500 nM in the IgG1 form. After incubation for 1 hour at 4° C., the cells were treated with Alexa-647 Goat anti-human IgG (H+L) cross-adsorbed secondary antibody (Invitrogen, #A21445) and incubated at 4° C. for an additional 30 minutes. […]
Cell-binding ability was determined in the same manner as in Example 12. For the six active substances primarily selected in Example 12, the isotype was changed to IgG4 or the LALAPG gene was mutated, and binding activity was determined in the two cell lines mentioned above.
Binding ability was determined in HH, an endogenous T cell line with high CD200R1 expression, and two additional overexpressing cell lines: U937-CD200R overexpressing cells, generated by intranuclear injection of human CD200R1 CDNA into the monocytic cell line U937 (CRL-1593.2) (Source: UMC Utrecht, the Netherlands) and Jurkat-CD200R overexpressing cells, were also cells engineered using a similar method.
All cell lines were maintained in RPMI 1640 medium supplemented with 10% heat-inactivated FBS and 1% penicillin/streptomycin (P/S) and cell binding was determined in the same manner as in Example 12. […]
Specific binding ability was determined using P001009 WT and antibody-optimized mutants, P001009v1, P001009v2, P001009v3, and P001009v4. […]
(A flow cytometer gives signals particle by particle.)

Assay [2] deals with IL-6 in U937-CD200R1 cells. In words: IL-6 suppression in LPS-treated U937-CD200R1 cells (AlphaLISA). Format: cell-based, human. Particulars: for IL-6: LPS-treated U937-CD200R1 cells, 24 h. As for the experimental part: To determine the binding ability of the candidates to U937-CD200R1-overexpressing cell lines and verify the efficacy thereof, the anti-inflammatory effect of anti-CD200R1 antibodies was analyzed. First, 5×10^6 U937-CD200R1 cells were added to 12 ml of medium, treated with 30 ng/ml of Phorbol 12-myristate 13-acetate (Sigma Aldrich, #P1585), and reacted at 37° C. in 5% CO2 for 24 hours. After reaction, the medium was replaced with RPMI 1640 medium containing only 10% heat-inactivated FBS, and 5×10^6 cells were maintained at 37° C. in 5% CO2 for 24 hours.
Cells were seeded on duplicate onto 96-well round-bottom plates (SPL, #34296) at 1×10^5 cells/50 μl/well. P001009 WT, P001009v1, and the previously published CD200R antibody LY3454738 (US 2020/0087395, I-4P, Eli Lilly) as a positive control were used in this experiment. The drug was serially diluted 10-fold from a maximum concentration of 100 nM and treated to the cells at concentrations of 10 nM, 1 nM, […], respectively. Additional cells were treated with 100 nM of hIgG4 kappa isotype control (Crownvivo, #C0004) as a negative control. Untreated cells were seeded in the same amount of medium (RPMI 1640 containing 10% heat-inactivated FBS) and incubated at 37° C., 5% CO2 for 1 hour. To induce an inflammatory response in drug-treated cells, each well was treated with 10 μl of lipopolysaccharide from Salmonella typhosa (Sigma Aldrich, #L7895) at a concentration of 1 μg/ml. One well was left untreated to assess the induction of inflammatory cytokines. After thorough mixing, the cells were incubated at 37° C. and 5% CO2 for 24 hours.
After centrifugation at 1100 g for 2 minutes, images of the pellets before and after LPS treatment were captured using a microscope (Carl Zeiss, AXIO VERT.A1). After LPS treatment, the pellet appeared as scattered debris (FIG. 18B) rather than uniform spheroids (FIG. 18A). This was observed under a microscope. The supernatant was collected and analyzed for inflammatory cytokines such as TNF-α and IL-6 using an EnVision® multimode plate reader (PerkinElmer). A bead-based cytokine assay was performed using the AlphaLISA immunoassay on the EnVision® instrument. TNF-α(human) AlphaLISA Detection Kit, 500 assay points (PerkinElmer, #AL208C) was used for TNF-α, and the IL-6 (human) AlphaLISA Detection Kit, 500 assay points (PerkinElmer, #AL223C) was used for IL-6. Cytokine levels were determined depending on the concentration of each antibody.
(In general: Alpha assays give light when donor and acceptor beads are brought close together.)

B1: P001009: phage display anti-CD200R1 clone; VH SEQ ID NO: 79, VL SEQ ID NO: 94 (antibody, V domains shown)
VH: EVQLLESGGGLVQPGGSLRLSCAASGFTFSSYDMSWVRQAPGKGLEWVSWISHGGGSIYYADSVKGRFTISRDNSKNTLYLQMNSLRAEDTAVYYCARDAPAYSAPLFDYWGQGTLVTVSS
VL: QSVLTQPPSASGTPGQRVTISCSGSSSNIGNNAVNWYQQLPGTAPKLLIYYDSNRPSGVPDRFSGSKSGTSASLAISGLRSEDEADYYCAAWDDSLSGYVFGGGTKLTVL
Regarding B1, in assay [1] (Jurkat-CD200R1 cells), the “cell binding ability, IgG4 or LALAPG mutants” value is “highest efficacy”. Moreover, the IL-6 was 231.7 ± 24.1 pg/mL in assay [2] (log [Ab] (M) −7); 401.5 ± 9.6 pg/mL in assay [2] (log [Ab] (M) −8); 1245.6 ± 49.9 pg/mL in assay [2] (log [Ab] (M) −9); 3398.1 ± 325.5 pg/mL in assay [2] (log [Ab] (M) −10); 3751.0 ± 144.5 pg/mL in assay [2] (log [Ab] (M) −11); 4512.7 ± 74.1 pg/mL in assay [2] (log [Ab] (M) −12).

B2: P001009v1: P001009 variant, LC S52 and LC S94 substituted with K and R; VH SEQ ID NO: 79 (antibody, V domains shown)
VH: EVQLLESGGGLVQPGGSLRLSCAASGFTFSSYDMSWVRQAPGKGLEWVSWISHGGGSIYYADSVKGRFTISRDNSKNTLYLQMNSLRAEDTAVYYCARDAPAYSAPLFDYWGQGTLVTVSS
VL: QSVLTQPPSASGTPGQRVTISCSGSSSNIGNNAVNWYQQLPGTAPKLLIYYDKNRPSGVPDRFSGSKSGTSASLAISGLRSEDEADYYCAAWDDRLSGYVFGGGTKLTVL
For the molecule B2, the “binding ability to Jurkat-CD200R1” value in assay [1] (serial dilution from 100 nM) is recorded as “highest binding ability”. Further, the IL-6 was 153.7 ± 8.8 pg/mL in assay [2] (log [Ab] (M) −7); 165.1 ± 8.4 pg/mL in assay [2] (log [Ab] (M) −8); 454.2 ± 45 pg/mL in assay [2] (log [Ab] (M) −9); 2439 ± 56.8 pg/mL in assay [2] (log [Ab] (M) −10); 3517.7 ± 166.3 pg/mL in assay [2] (log [Ab] (M) −11); 4730.2 ± 99.8 pg/mL in assay [2] (log [Ab] (M) −12). Besides, the “IL-6 level” value in assay [2] (low nanomolar (nM) drug concentrations) is “maintained low inflammatory cytokine levels”.
